# Source: publication PMC5778462
# Like-named read-outs stand apart in the source and are kept apart here.
# T1: MAZ (UniProt P56270)
# T1 sequence: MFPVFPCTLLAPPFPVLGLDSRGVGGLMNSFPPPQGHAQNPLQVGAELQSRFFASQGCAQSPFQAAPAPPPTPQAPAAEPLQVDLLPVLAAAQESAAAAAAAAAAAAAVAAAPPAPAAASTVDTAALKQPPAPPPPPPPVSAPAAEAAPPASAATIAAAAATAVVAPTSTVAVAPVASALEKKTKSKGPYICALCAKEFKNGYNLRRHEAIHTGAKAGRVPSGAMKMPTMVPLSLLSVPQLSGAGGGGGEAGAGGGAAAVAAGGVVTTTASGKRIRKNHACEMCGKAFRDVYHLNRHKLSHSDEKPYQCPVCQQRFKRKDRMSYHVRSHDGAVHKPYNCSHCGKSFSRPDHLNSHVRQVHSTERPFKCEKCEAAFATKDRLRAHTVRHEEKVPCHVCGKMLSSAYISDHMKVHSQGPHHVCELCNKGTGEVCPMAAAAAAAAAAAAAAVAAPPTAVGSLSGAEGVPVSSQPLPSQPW
# Tests used:
# Assay in all cases: EMSA
# [1] = target: T1, MAZ
# [2] = target: T2, OGG1 (hOGG1) (UniProt O15527 1-345)
# T2 sequence (O15527 whole entry): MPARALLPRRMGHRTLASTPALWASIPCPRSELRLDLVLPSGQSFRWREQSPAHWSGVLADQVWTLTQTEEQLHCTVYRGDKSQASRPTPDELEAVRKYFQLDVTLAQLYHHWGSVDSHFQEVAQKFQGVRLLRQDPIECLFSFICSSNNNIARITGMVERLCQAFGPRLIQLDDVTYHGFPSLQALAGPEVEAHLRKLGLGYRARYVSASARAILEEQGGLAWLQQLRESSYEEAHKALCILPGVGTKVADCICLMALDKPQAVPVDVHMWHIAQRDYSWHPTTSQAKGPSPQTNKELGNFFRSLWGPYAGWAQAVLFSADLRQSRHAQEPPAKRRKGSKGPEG
# [3] = target: T2, OGG1 (hOGG1); remark: listed apart in the source
molecule,measurement,setting,value
AGGGCGGTGTGGGAAGAGGGAAGAGGGGGAGG [32R G4],binding signal,[1],1 reference
AGGGCGGTGTGGGAAGAGGGAAGAGGGGGAGG [95 G4],binding signal (fold vs 32R G4),[1]; 8-oxoG at G16,5
AGGGCGGTGTGGGAAGAGGGAAGAGGGGGAGG [96 G4],binding signal (fold vs 32R G4),[1]; 8-oxoG in 11-nt loop (Table 1: one; text: two; positions only in figure),5
AGGGCGGTGTGGGAAGAGGGAAGAGGGGGAGG [97 G4],binding signal (fold vs 32R G4),[1]; 8-oxoG at G16 and G23,5
AGGGCGGTGTGGGAAGAGGGAAGAGGGGGAGG (structured_DNA) [32R G4],binding result,[2],binds
"AGGGCGGTGTGGGAAGAGGGAAGAGGGGGAGG (structured_DNA, two 8-oxoG in G-tetrad runs (exact positions only in figure)) [94 G4]",binding result,[3],binds
"AGGGCGGTGTGGGAAGAGGGAAGAGGGGGAGG (structured_DNA, 8-oxoG at G6) [92 G4]",binding result,[3],binds
"AGGGCGGTGTGGGAAGAGGGAAGAGGGGGAGG (structured_DNA, one 8-oxoG in G-run III (exact position only in figure)) [93 G4]",binding result,[3],binds
